T1: BamHI (Bacillus amyloliquefaciens, UniProt P23940 1-213)
T1 sequence: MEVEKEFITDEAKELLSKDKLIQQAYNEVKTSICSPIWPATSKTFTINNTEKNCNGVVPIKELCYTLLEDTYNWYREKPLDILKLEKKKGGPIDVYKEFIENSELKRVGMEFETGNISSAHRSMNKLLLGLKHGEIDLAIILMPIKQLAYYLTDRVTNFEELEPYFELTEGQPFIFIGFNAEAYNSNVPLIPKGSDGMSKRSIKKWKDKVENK

T2: OkrAI (Oceanospirillum kriegii, UniProt E2JKI3 1-194)
T2 sequence: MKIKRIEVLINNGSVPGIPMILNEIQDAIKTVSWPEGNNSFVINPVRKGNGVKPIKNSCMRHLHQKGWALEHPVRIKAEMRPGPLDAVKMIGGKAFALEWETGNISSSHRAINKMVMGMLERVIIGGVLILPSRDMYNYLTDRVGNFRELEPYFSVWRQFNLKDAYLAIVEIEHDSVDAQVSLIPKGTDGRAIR


What was measured:
BamHI = target: T1, BamHI; assay: fluorescence anisotropy
OkrAI [1] = target: T2, OkrAI; assay: fluorescence anisotropy
OkrAI [2] = target: T2, OkrAI; assay: X-ray crystallography

Binder	Kd (BamHI) [nM]	Kd (OkrAI [1]) [nM]	binding result (OkrAI [2])
20-mer cognate duplex (dsDNA) DNA 1: TATGAGCGGATCCTTACGAG DNA 2: CTCGTAAGGATCCGCTCATA	8.3	12.9	
palindromic 12-mer (dsDNA) DNA 1: TATGGATCCATA DNA 2: TATGGATCCATA			binds

From publication PMC3025578
